Experimental data from the supplement of paper PMC11865577.

What was measured:
Assay in all cases: pull-down binding Z-score (relative to library population); higher = stronger binding
[1] = tested on: TO-3-N3-2 (biotin conjugate); conditions: RNA library: Library-2
In short: (§1)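 The RNA library, end-labelled with Cy5 or Cy3, was heat-folded in phosphate/NaCl/KCl buffer, and 1 μg was incubated at 25 °C for 60 min with streptavidin beads carrying 100 pmol of biotin-conjugated small molecule. Hot SDS released the bound RNA, which was then hybridised to a DNA barcode microarray for 20 h at 55.5 °C. For scoring binding, signal from beads alone was subtracted, replicate barcoded probes were averaged after discarding the highest and lowest, and each value was turned into a Z-score from the library mean and standard deviation.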

[2] = tested on: TO-3-N3 (biotin conjugate); conditions: RNA library: Library-2
In short: as §1

[3] = tested on: G-clamp-N3 (biotin conjugate); conditions: RNA library: Library-1 (pre-miRNA loops + repeats)
In short: as §1

[4] = tested on: TO-N3 (biotin conjugate); conditions: RNA library: Library-2
In short: as §1

[5] = tested on: TO-N3-2 (biotin conjugate); conditions: RNA library: Library-2
In short: as §1

Sequence	pull-down binding Z-score [1]	pull-down binding Z-score [2]	pull-down binding Z-score [3]	pull-down binding Z-score [4]	pull-down binding Z-score [5]
AAAACUUUCAUCCAAGUCAUU [hsa-mir-378d-2]	-0.238	0.382	-0.902	0.164	-0.609
AAAAUGUUUGUCAUAAACCGUUUU [hsa-mir-335]	-0.302	-0.185	-0.914	-0.158	-0.934
AAAAUUACUUUUGGUAAAUACAGUUUU [hsa-mir-559]	0.00825	-0.101	-0.546	-0.344	-1.04
AAAAUUCAUGGCCUACAGCUGCCUCUUGCCAAACUGCACUGGAUUUU [hsa-mir-5010]	-0.176	-0.25	-1.45	-0.482	0.111
AAACGUGCUCAGUGUCUUUAUAACAGGAAAGCCGUAAAC [hsa-mir-1272]	0.284	0.0446	-0.626	0.528	0.894
AAAGAGGUGUUUCUACUCCAU [hsa-mir-3690-1_3690-2]	-0.0114	-0.497	-1.18	-0.517	-0.235
AAAGCCAGGGACCCUGAGAGGCUUU [hsa-mir-6885]	0.0899	0.0246	3.29	0.556	1.24
AAAUAAAAGAUGGAGUCGUUUGACGUCUUUUAACACCCUUU [hsa-mir-8055]	-0.1	-0.623	-0.175	-0.706	-0.866
AAAUAAGAGGCUAGGAUUGCCUCUUAUUU [hsa-mir-3201]	-0.362	-0.688	0.838	-1.18	-1.57
AAAUAAGCUCCAUAUCAAUGAGAAUUUCAAUGGGAUUAUGUG [hsa-mir-4791]	-0.0328	-0.569	-1.06	-0.415	0.0926
AAAUAGUUUCUAUCAAAAUAGUUU [hsa-mir-3668]	-0.362	-0.791	-1.13	-0.931	-1.14
AAAUCCCGUUAAUAAGUAAGAGGAUUU [hsa-mir-2113]	0.143	0.503	0.525	0.817	0.758
AAAUCCGUGUUUGGACGCUUCUGGUA [hsa-mir-3936]	0.653	0.678	-0.453	0.923	0.681
AAAUGAGAGUUAGCCAGGAGCUUUGCAUACUCA [hsa-mir-6801]	-0.0024	-0.384	-1.22	-0.00733	0.66
AAAUUGCAGACACUAGGACCAUGUCUUGGUUUUUGCAAUAAUG [hsa-mir-1248]	-0.133	-0.228	0.0385	-0.189	-0.641
AACAACAGCAUCAGAAGCAACAUCAGCUUUAGUU [hsa-mir-569]	0.364	0.728	-1.03	0.9	1
AACACCCAUCCCAGGAUUGCUGAUGGGUGUU [hsa-mir-5705]	-0.428	-0.618	-0.7	-0.668	-0.282
AACAGCAGGAUUGGCUGUAGCUGUU [hsa-mir-2117]	-0.324	0.357	0.593	0.185	0.369
AACAGCUUUGCGAAGUGUUGUU [hsa-mir-4425]	-0.137	0.104	-0.651	-0.113	-0.553
AACAGGACCUGUGCUCACUGGGGCCUGCA [hsa-mir-6797]	0.298	0.406	-0.344	1.02	1.55
AACAUACAUUUGUCUUGGUGUGUU [hsa-mir-4684]	-0.744	-1.01	3.35	-1.44	-1.35
CACGGUGUCUGCGGGAGGAGACCAUG [hsa-mir-4757]	–	0.515	-0.814	0.828	0.821
CACGUGCUGCUUGUAUAGACAUGAG [hsa-mir-3659]	–	0.88	0.468	1.11	0.528

Sequence	pull-down binding Z-score [1]	pull-down binding Z-score [2]	pull-down binding Z-score [3]	pull-down binding Z-score [4]	pull-down binding Z-score [5]
CGCCCGACUUCGGGG [hsa-mir-4767]	–	-0.34	0.767	-0.314	0.0319
GACAUUGCCAGAGGAUGGGCAGCAGAC [hsa-mir-6855]	0.334	–	2	0.788	1.17
GGACCAGCCCAAAGGCCAGGCCUGACCC [hsa-mir-4780]	0.11	0.125	-0.253	–	1.62
GUACUGGGUCUCUCUGGUUAGACCAGAUCUGAGCCUGGGAGCUCUCUGGCUAACUAGGGAACCCACUGC [HIV_2014_Siegfried_nucs_8982_9173_4]	–	–	0.055	–	–
GUCUCUCUGGUUAGACCAGAUCUGAGCCUGGGAGCUCUCUGGCUAACUAGGGAAC [HIV_2014_Siegfried_nucs_1_753_1]	–	–	-0.404	–	–
GUGGAAGUGCCCACUGGUUCCA [hsa-mir-194-2]	0.341	0.425	-0.472	–	1.32
UCAUUUUCCUUAAAAAAUGA [hsa-mir-3128]	-0.469	-0.529	-1.07	-1.09	–
UGGGGUUGGGGUUGGGGUUGGGGUUGGGGUUGGGGU [G4_(UGGGGU)6]	–	–	1.14	–	–
UGGGGUUGGGGUUGGGGUUGGGGUUGGGGUUGGGGUUGGGGUUGGGGU [G4_(UGGGGU)8]	–	–	1.45	–	–
UGGGUUGGGUUGGGUUGGGUUGGGUUGGGU [G4_(UGGGU)6]	–	–	1.62	–	–
UGGGUUGGGUUGGGUUGGGUUGGGUUGGGUUGGGUUGGGU [G4_(UGGGU)8]	–	–	0.596	–	–
UGGUUGGUUGGUUGGUUGGUUGGU [G4_(UGGU)6]	–	–	1.53	–	–
UGGUUGGUUGGUUGGUUGGUUGGUUGGUUGGU [G4_(UGGU)8]	–	–	0.443	–	–
UGUCUUUCGAUCAAAACCUGGAUUAUCAAAUAGGAUACAUCUGCAGUGGGGUUUUCGGUGACAACCCGCGUCCCGAAGAUGGAACAGGCA	-0.424	-0.887	–	-0.552	0.432
UGUGACCUUCAAAAUUAUGGUGAUAGUGCAACAUUACCUAAAGGCAUAAUGAUGAAUGUCGCA	-0.486	-0.431	–	-0.621	-1.05
UGUGACUGGACA [SHAPE_invivo_SARS-CoV-2_Motif_313]	-0.233	0.86	–	0.774	-0.14
UGUGAUUUUAAUAGCUUCUUAGGAGAAUGACA [SHAPE_invivo_SARS-CoV-2_Motif_573]	-0.182	-0.571	–	-0.641	-0.333
UGUGCUUGUGAAAUUGUCGGUGGACAAAUUGUCACCUGUGCA	-0.27	-0.722	–	-0.833	-0.816
UGUGGAAAGGGCUAUCAUCUUAUGUCCUUCCCUCA [DMSMaPseq_invitro_SARS-CoV-2_Motif_440]	-0.0817	-0.089	–	-0.154	-0.837
UGUGGACAAGGGCCUUGUCUUAGACAGUCACU [hsa-mir-4318]	0.359	0.603	-0.432	0.983	–
UGUGGACAUGUCAAUGACAUAUGGACAACAGUUUGGUCCAACUUAUUUGGAUGGAGCUGAUGUUACUAAAAUAAAACCUCAUAAUUCACA	-0.162	-0.618	–	-0.544	-0.453
UGUGGUAAACAAGCUACA	-0.468	-0.644	–	-0.766	-0.906
UGUGUACACACA [SHAPE_invivo_SARS-CoV-2_Motif_249]	-0.496	0.252	–	0.0581	-0.584

Sequence	pull-down binding Z-score [1]	pull-down binding Z-score [2]	pull-down binding Z-score [3]	pull-down binding Z-score [4]	pull-down binding Z-score [5]
UGUGUCAAUAUUUAAACACA	-0.00504	0.372	–	0.135	-0.99
UGUGUGAUAUCAGACA	-0.703	-0.5	–	-0.639	-0.597
UGUUACUUUAUAUUGACAUUAAUGGCAAUCUUCAUCCAGAUUCUGCCACUCUUGUUAGUGACA	-0.104	-0.354	–	-0.585	-0.868
UGUUCACGUGGAGAGGAGUUAAACA [hsa-mir-499b]	0.375	0.0485	0.339	0.423	–
UGUUGCUUAUGAAAGUUUACGCCCUGACACACGUUAUGUGCUCAUGGAUGGCUCUAUUAUUCAAUUUCCUAACACCUACCUUGAAGGUUCUGUUAGAGUGGUAACA [SHAPE_invitro_SARS-CoV-2_Multi_27_ComplexLevel_1]	0.0467	-0.56	–	-0.452	0.0671
UGUUGGCAUCAUUCUAUUGGAUUUGAUUACGUCUAUAAUCCGUUUAUGAUUGAUGUUCAACA	-0.183	-0.515	–	-0.712	-0.625
UGUUGUAAAUAAGGGACACUUUGAUGGACAACA [DMSMaPseq_invitro_SARS-CoV-2_Motif_348]	-0.178	-0.73	–	-0.488	0.325
UGUUGUAACAACA	-0.596	-0.671	–	-0.992	-1.35
UGUUUUCUACAAAGAAAACA [SHAPE_invivo_SARS-CoV-2_Motif_122]	-0.34	-0.462	–	-0.865	-1.85
UUAAAAUAUGACUUCACGGAAGAGAGGUUAAAACUCUUUGACCGUUAUUUUAA [DMSMaPseq_invitro_SARS-CoV-2_Motif_258]	0.159	0.0656	–	-0.184	-0.898
UUAAACACGCUUGUUAAACAACUUAGCUCCAAUUUUGGUGCAAUUUCAAGUGUUUUAA [SHAPE_invivo_SARS-CoV-2_Motif_457]	-0.0371	0.47	–	0.301	-0.627
UUAACGUGAGUCUUGUAAAACCUUCUUUUUACGUUUACUCUCGUGUUAA [DMSMaPseq_invitro_SARS-CoV-2_Motif_474]	-0.0657	-0.223	–	-0.275	-1.02
UUAAGGUGUUUACAACAGUAGACAACAUUAA [DMSMaPseq_invitro_SARS-CoV-2_Motif_93]	-0.382	-1.01	–	-1.08	-1.08
UUAAGUGACACACUUAA	-0.663	-0.711	–	-1.18	-1.49
UUAAUGCCUGUCUGUGUGGAAACUAAAGCCAUAGUUUCAACUAUACAGCGUAAAUAUAAGGGUAUUAA [DMSMaPseq_invitro_SARS-CoV-2_Motif_83]	0.502	-0.287	–	-0.439	-0.463
UUAAUGGAGUCACAUUAA [DMSMaPseq_invitro_SARS-CoV-2_Motif_357]	-0.347	0.485	–	0.273	-1
UUAAUUGAAUUGUGCGUGGAUGAGGCUGGUUCUAAAUCACCCAUUCAGUACAUCGAUAUCGGUAAUUAUACAGUUUCCUGUUUACCUUUUACAAUUAA [DMSMaPseq_invitro_SARS-CoV-2_Multi_84_ComplexLevel_1]	0.0361	-0.244	–	-0.239	-0.403
UUACACCACUGGGCAUUGAUUUAGAUGAGUGGAGUAUGGCUACAUACUACUUAUUUGAUGAGUCUGGUGAGUUUAA	-0.516	-0.972	–	-1.09	-1.04
UUACAGAAGAGGUUGGCCACACAGAUCUAAUGGCUGCUUAUGUAG	-0.244	-0.523	–	-0.376	-0.138
UUACAGAUCUUUACCAGGAGUUUUCUGUGGUGUAGAUGCUGUAA [SHAPE_invivo_SARS-CoV-2_Motif_187]	-0.414	-0.96	–	-1.21	-1
UUCAGUUUCCUUACUGGUAA [hsa-mir-302e]	-0.353	-0.394	-0.769	–	-0.299
UUUAUGUGAACUAAAAUAUAAA [hsa-mir-513c]	-0.21	-0.547	-1.49	–	-1
UUUGAAGUGUUCUAAAUGGUUCAAA [hsa-mir-424]	–	-0.532	1.09	-0.738	-1.05
